This note sets out measurements from IntAct's records for PubMed 17875641.

B1: tRNA-specific adenosine deaminase subunit tad3 (Schizosaccharomyces pombe (strain ATCC 38366 / 972)), Q9P7N4 (parent)
chain: MVKTNISKNSPKEATVPELDWPFKLIKSHLETRKLETENVWIACFEPKYASKVTQYVKQIRSKQKESLLHCNRLRRIQDENGSLELQIIICPEKSMTANEIGKDFEDLGIVSKMIFLYAVPAFPPLTDEQFHEWNSVWPVSYRKHVQRQDVFTVHELKRIESILEDLINAAGASHKHGEIGCAAAIYDPTTDTVLAVSVDERSKLKNPINHCVMNAINLVAKRELSRRQNRTDGSKDRYLCKDLTVVMTHEPCVMCSMGLLHSRIRRLIYCKKQPLTGGIESLYGIHWRAELNHRYLAYSGWNKPVPSIKENIHV
partner: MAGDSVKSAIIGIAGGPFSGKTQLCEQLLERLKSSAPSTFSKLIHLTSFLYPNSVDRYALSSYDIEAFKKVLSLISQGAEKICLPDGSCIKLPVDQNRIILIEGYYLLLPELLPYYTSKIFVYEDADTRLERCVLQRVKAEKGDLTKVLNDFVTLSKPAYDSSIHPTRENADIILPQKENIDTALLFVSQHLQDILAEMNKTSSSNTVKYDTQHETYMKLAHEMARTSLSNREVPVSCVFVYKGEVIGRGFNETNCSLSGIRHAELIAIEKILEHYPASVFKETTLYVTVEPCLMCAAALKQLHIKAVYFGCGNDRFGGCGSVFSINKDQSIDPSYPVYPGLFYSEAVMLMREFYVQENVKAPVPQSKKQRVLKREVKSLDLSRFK

This experiment covers variants of B1. The note with it: with tad2_schpo tad2, O94642.
In the case of S257N, the “effect of a mutation on the interaction” value is given as “decreasing interaction”.
